Measured values as given in US20110086028A1.

Key:
[1] = target: endogenous cell-associated gp-340 on human cell lines (AGS, VK2E6E7, Endo1E6E7, Ect1E6E7, HEC1A, untransfected 293) and human vaginal and cervical tissue (human) (UniProt Q9UGM3); assay: cell-based or functional assay
[2] = target: full length gp-340 (exon 1-54) expressed on the surface of 293 cells transfected with pDEST-DMBT1 (clone 1D4) (UniProt Q9UGM3); assay: cell-based or functional assay
Chain of full length gp-340 (exon 1-54) expressed on the surface of 293 cells transfected with pDEST-DMBT1 (clone 1D4) (Q9UGM3 20-2413 limits assumed, change not shown): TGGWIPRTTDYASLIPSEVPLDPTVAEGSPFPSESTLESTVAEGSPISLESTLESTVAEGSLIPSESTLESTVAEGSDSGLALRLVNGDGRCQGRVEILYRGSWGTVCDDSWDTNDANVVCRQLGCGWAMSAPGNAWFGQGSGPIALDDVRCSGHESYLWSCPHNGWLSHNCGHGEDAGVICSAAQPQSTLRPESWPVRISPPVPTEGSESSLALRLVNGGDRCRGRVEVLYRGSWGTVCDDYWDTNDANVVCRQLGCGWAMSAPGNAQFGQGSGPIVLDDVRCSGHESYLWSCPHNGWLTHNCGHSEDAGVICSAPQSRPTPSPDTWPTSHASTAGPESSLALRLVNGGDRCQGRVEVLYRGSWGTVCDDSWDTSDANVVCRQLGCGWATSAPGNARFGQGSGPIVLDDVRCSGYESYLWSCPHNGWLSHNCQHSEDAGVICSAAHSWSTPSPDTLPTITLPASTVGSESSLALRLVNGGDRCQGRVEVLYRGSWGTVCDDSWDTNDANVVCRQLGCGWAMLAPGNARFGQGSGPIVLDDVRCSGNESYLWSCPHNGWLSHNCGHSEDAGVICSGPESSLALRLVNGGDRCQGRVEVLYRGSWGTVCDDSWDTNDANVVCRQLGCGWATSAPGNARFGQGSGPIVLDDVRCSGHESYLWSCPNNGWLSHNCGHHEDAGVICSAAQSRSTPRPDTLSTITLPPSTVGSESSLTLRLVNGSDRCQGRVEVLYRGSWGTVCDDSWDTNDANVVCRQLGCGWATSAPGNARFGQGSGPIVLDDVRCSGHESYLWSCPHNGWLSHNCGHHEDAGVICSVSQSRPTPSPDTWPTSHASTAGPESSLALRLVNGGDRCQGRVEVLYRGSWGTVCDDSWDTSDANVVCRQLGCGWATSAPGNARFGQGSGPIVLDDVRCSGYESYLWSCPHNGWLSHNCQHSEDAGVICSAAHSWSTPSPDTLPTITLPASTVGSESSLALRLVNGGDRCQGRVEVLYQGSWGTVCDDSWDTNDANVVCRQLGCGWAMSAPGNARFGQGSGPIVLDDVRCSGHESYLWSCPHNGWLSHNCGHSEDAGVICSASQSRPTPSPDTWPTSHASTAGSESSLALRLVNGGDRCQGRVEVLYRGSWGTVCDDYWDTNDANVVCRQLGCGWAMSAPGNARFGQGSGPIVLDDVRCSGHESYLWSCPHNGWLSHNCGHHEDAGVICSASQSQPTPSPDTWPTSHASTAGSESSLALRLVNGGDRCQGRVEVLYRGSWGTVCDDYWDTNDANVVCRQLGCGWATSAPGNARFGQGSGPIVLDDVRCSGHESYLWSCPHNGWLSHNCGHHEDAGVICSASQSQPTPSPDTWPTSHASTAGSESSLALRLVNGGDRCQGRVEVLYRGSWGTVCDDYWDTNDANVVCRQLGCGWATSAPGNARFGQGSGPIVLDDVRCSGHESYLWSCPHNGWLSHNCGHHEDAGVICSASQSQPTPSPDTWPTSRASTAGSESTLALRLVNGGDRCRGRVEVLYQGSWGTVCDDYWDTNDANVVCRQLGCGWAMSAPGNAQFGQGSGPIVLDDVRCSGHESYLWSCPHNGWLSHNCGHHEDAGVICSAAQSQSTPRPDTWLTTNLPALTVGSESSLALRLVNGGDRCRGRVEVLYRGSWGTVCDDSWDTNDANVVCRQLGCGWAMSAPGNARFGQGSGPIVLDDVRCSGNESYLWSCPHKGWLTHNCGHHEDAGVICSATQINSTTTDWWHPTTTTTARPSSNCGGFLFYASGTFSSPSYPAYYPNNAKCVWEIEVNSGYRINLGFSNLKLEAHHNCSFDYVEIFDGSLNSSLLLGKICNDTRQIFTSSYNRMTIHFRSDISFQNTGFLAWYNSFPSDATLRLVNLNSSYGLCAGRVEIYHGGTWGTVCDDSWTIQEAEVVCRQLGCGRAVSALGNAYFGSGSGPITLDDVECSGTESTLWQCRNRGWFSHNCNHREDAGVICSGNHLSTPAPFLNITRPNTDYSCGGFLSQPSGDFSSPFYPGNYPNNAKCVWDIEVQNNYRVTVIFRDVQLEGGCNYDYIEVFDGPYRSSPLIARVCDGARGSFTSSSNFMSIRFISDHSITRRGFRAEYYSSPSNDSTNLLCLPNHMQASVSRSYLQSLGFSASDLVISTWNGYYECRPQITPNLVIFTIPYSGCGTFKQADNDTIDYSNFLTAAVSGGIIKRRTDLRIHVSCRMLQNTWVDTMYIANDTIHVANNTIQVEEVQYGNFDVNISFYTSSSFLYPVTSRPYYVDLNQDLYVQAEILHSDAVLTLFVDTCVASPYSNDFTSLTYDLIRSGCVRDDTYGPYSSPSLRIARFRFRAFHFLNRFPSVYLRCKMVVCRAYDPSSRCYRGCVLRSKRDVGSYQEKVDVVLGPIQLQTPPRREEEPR

Chain of endogenous cell-associated gp-340 on human cell lines (AGS, VK2E6E7, Endo1E6E7, Ect1E6E7, HEC1A, untransfected 293) and human vaginal and cervical tissue (human) (Q9UGM3 20-2413): as the sequence (Q9UGM3 20-2413 limits assumed, change not shown) above

HIV-1 Env (gp120) of primary M-tropic strain BL2, on virus particles
enhancement in viral infectivity (AGS cell trans-infection) [1]: 6 fold | viral input at which cells were infected in 50% of the wells (AGS cell trans-infection) [1]: 0.08 IU | TCID50 of added virus in trans-infection to PHA-blasts, gp-340 expressing 293 cells against non-exogenously expressing 293 cells [2]: 6 fold | mean P24 in 6 wells, clone 1D4 without peptide 6284, 0.11 IU [2]: 184 | mean P24 in 6 wells, clone 1D4 without peptide 6284, 0.33 IU [2]: 239 | percentage of wells infected at 0.11 IU of HIV added (trans-infection, gp-340 expressing 293 cells) [2]: 50% | percentage of wells infected at 0.33 IU of HIV added (trans-infection, gp-340 expressing 293 cells) [2]: 100%
